Legend:
[1] = target: T1, recombinant human domain 1-3His6 of the cation-independent mannose-6-phosphate receptor (human, UniProt P11717 41-467); test: ELISA on coated antigen, 1st of 2 repeats
T1 construct: Biotinylated (NHS-PEG4-biotin) for BLI; Glycosylated; also called hDom1-3His6; hCI-M6PRD1-D3
Method: FIGS. 4A-4B. Affinity of anti-CI-M6PR VHHs for recombinant human CI-M6PR Domain 1-3His₆ determined by ELISA. A & B. Measurements for each of the 11 anti-CI-M6PR VHHs in serial dilution binding to the coated human CI-M6PR Domain 1-3His₆ antigen. Detection was performed using an anti-VHH antibody coupled to HRP, and measured as the absorbance of the TMB substrate at 450 nm, correlating to the amount of bound VHH as plotted at the Y-axis. The Log₁₀ concentrations of the serially diluted VHHs were plotted at the X-axis. […] A & B represent replicates but using a different concentration of human CI-M6PR Domain 1-3His₆ (in (FIG. 4A): 0-0.75 μM and in (FIG. 4B): 0-1 μM).
We evaluated the affinity of the VHHs against the hDom₁₋₃His₆ using ELISA. Coated hDom₁₋₃His₆ was incubated with serially diluted VHH that was afterwards detected using an anti-VHH antibody, coupled to HRP.

[2] = target: T1, recombinant human domain 1-3His6 of the …; test: BLI exp 1, dissoc pH 7
Method: (§1) For each of the 11 anti-CI-M6PR VHHs, a biolayer interferometry (BLI) experiment was performed in which the hDom₁₋₃His₆ was biotinylated and coupled to streptavidin biosensor tips. Afterwards, the tips were incubated with serially diluted VHHs during the association phase and dissociation was performed at pH 7.4. Similarly, dissociation was performed at pH 7.0, pH 6.0 and pH 5.0 as well after regeneration of the biosensor tips. […] The anti-CI-M6PR antibody (clone 2G11) and GBP were used as positive and negative controls, respectively.
(§2) Analysis of the binding kinetics was performed using an Octet Red96 (FortéBio) device with Streptavidin SA Biosensor tips (VWR 733-2145). Therefore, 1 mL of human domain₁₋₃His₆ (0.5 mg/mL in 50 mM MES, 150 mM NaCl, pH 6.5) was incubated at room temperature for 30 minutes with EZ-Link™ NHS-PEG4-Biotin (1 mg) (Thermo Fischer A39259) and NaHCO₃ (100 mM). Biotinylated human domain₁₋₃His₆ was purified using a Zeba spin desalting Column™ (7K MWCO, 2 mL, Thermo Fischer 89890) and 1 μg/mL was used for immobilization on the Streptavidin SA Biosensor tips. The loaded tips were dipped into a particular anti-CI-M6PR VHH solution, serially diluted in kinetics buffer (0.2M NaH₂PO₄, 0.1M Na⁺ citrate, 0.01% BSA, 0.002% Tween20, pH 7.4). This was followed by dissociation of the particular anti-CI-M6PR VHH in kinetics buffer of pH 7.4, followed by regeneration in Glycine (10 mM, pH 3) and neutralisation. Same cycle was repeated but the dissociation was performed at pH 7.0, 6.0, 5.0, 4.5 and 4.0. A reference well and reference sensors were subtracted from ligand sensors afterwards and Savitsky-Golay filtering was applied on the data. Fitting of the data was performed using a 1:1 model, grouped per pH of dissociation.

[3] = target: T1, recombinant human domain 1-3His6 of the …; test: BLI exp 2, dissoc pH 7.4
Method: as §1, §2

[4] = target: T1, recombinant human domain 1-3His6 of the …; test: BLI exp 2, dissoc pH 6
Method: as §1
(§3) Analysis of the binding kinetics was performed using an Octet Red96 (FortéBio) device with Streptavidin SA Biosensor tips (VWR, 733-2145). To this end, 1 mL of hCI-M6PR_D1-D3 (0.5 mg/mL in 50 mM MES, 150 mM NaCl, pH 6.5) was incubated at room temperature for 30 minutes with a two-fold molar excesses of EZ-Link™ NHS-PEG₄-Biotin (Thermo Fischer, A39259) and NaHCO₃ (100 mM, pH 8.3). Biotinylated hCIMPR_D1-D3 was purified using a Zeba spin desalting column (Thermo Fischer, 89890) and protein concentration was calculated by measuring the absorbance at 280 nm (extinction coefficient 50320 M¹ cm⁻¹). Two-fold biotin-labelled antigen was loaded on the tips (2.5 μg/mL) and subsequently dipped into a particular anti-CI-M6PR VHH-containing solution (ranging from 0-100 nM). Serial VHH dilutions were made in kinetics buffer (0.2 M Na₂HPO₄, 0.1 M Na⁺ citrate, 0.01% BSA, 0.002% Tween20, pH 7.4). After association (100 sec), dissociation was conducted (500 sec) for each anti-CI-M6PR VHH in the kinetics buffer, followed by biosensor regeneration in glycine (10 mM, pH 3) and neutralisation. The same cycle was repeated with dissociation performed in kinetics buffer of pH 7.0, 6.5, 6.0, 5.5, and 5.0.
(§4) A reference well and reference sensors were subtracted from ligand sensors afterwards and Savitsky-Golay filtering was applied on the data. Fitting of the data was performed using a 1:1 model, grouped per dissociation pH.

[5] = target: T1, recombinant human domain 1-3His6 of the …; test: BLI exp 1, dissoc pH 7.4
Method: as §1, §2

[6] = target: T1, recombinant human domain 1-3His6 of the …; test: BLI exp 2, dissoc pH 5
Method: as §1, §3, §4

[7] = target: T1, recombinant human domain 1-3His6 of the …; test: BLI at pH 7.4, 1st of 2 repeats
Method: as §1, §2

[8] = target: T1, recombinant human domain 1-3His6 of the …; test: BLI at pH 7.4, 2nd of 2 repeats

| EC50 [1] | Kd [2] | koff [2] | kon [2] | koff [3] | kon [3] | koff [4] | kon [4] | Kd [5] | koff [5] | kon [5] | koff [6] | kon [6] | Kd [7] | koff [7] | kon [7] | Kd [8] | koff [8] | kon [8] | Kd [3] | Binder |
| --- | --- | --- | --- | --- | --- | --- | --- | --- | --- | --- | --- | --- | --- | --- | --- | --- | --- | --- | --- | --- |
| 0.0816 nM | 0.346 nM | 0.000412 s⁻¹ | 1.19e+06 M⁻¹ s⁻¹ | 0.00018 s⁻¹ | 1.8e+06 M⁻¹ s⁻¹ | 0.00029 s⁻¹ | 1.7e+06 M⁻¹ s⁻¹ | 0.0903 nM | 0.000124 s⁻¹ | 1.37e+06 M⁻¹ s⁻¹ | 0.033 s⁻¹ | 2.33e+08 M⁻¹ s⁻¹ | 0.0903 nM | 0.000124 s⁻¹ | 1.37e+06 M⁻¹ s⁻¹ | ~0.1 nM | 0.00018 s⁻¹ | 1.8e+06 M⁻¹ s⁻¹ | – | anti-CI-M6PR VHH5 (VHH, His6-tagged; made in Pichia pastoris, later also in E. coli WK6) VHH: QVQLQESGGGLVQAGGSLKLSCAAAGRTFSRLAMGWFRQAPGKEREFVAAISENGDSIHYSDSVKGRFAVSRDNAKNTVYLQMNSLKPEDTAIYYCAADRAAYYCSGSGCYPSRAPAAASYDYWGQGTQVTVSS |
| 0.0109 nM | 8.08 nM | 0.00698 s⁻¹ | 864000 M⁻¹ s⁻¹ | 0.0118 s⁻¹ | 1.3e+06 M⁻¹ s⁻¹ | 0.028 s⁻¹ | 40000 M⁻¹ s⁻¹ | 10.8 nM | 0.00999 s⁻¹ | 924000 M⁻¹ s⁻¹ | 0.055 s⁻¹ | 55000 M⁻¹ s⁻¹ | 10.8 nM | 0.00999 s⁻¹ | 924000 M⁻¹ s⁻¹ | 9.08 nM | 0.0118 s⁻¹ | 1.3e+06 M⁻¹ s⁻¹ | 9.08 nM | anti-CI-M6PR VHH7 (VHH, His6-tagged (Pichia pastoris)) VHH: QVQLQESGGGLVQPGGSLRLSCAASGIIFSDNRMDWYRQAPGKQREWVATLASYGWKTYADSVKGRFTISRDNTKNTVYLRMNSLKPEDTAVYYCKASSPVLNDIWGQGTQVTVSS |
| 84.2 nM | 2.65 nM | 0.00227 s⁻¹ | 856000 M⁻¹ s⁻¹ | 0.00352 s⁻¹ | 743000 M⁻¹ s⁻¹ | 0.00227 s⁻¹ | 718000 M⁻¹ s⁻¹ | 3.35 nM | 0.00352 s⁻¹ | 1.05e+06 M⁻¹ s⁻¹ | 0.0156 s⁻¹ | 330000 M⁻¹ s⁻¹ | 3.35 nM | 0.00352 s⁻¹ | 1.05e+06 M⁻¹ s⁻¹ | 4.74 nM | 0.00352 s⁻¹ | 743000 M⁻¹ s⁻¹ | 4.74 nM | anti-CI-M6PR VHH6 (VHH, His6-tagged; made in E. coli) VHH: QVQLQESGGGLVQAGGSLRLSCAVSGSISSIGGMGWFRQAPGKQREFVAVILNNSGMTSYADSVKGRFTISRGNSKNTMYLQMNSLKPEDTAVYYCNYSGYWGQGTQVTVSS |
| 0.00642 nM | 0.476 nM | 0.00051 s⁻¹ | 1.07e+06 M⁻¹ s⁻¹ | 0.000444 s⁻¹ | 1.57e+06 M⁻¹ s⁻¹ | 0.000122 s⁻¹ | 615000 M⁻¹ s⁻¹ | 0.282 nM | 0.000444 s⁻¹ | 1.57e+06 M⁻¹ s⁻¹ | 0.0496 s⁻¹ | 590000 M⁻¹ s⁻¹ | 0.282 nM | 0.000444 s⁻¹ | 1.57e+06 M⁻¹ s⁻¹ | 0.282 nM | 0.000444 s⁻¹ | 1.57e+06 M⁻¹ s⁻¹ | 0.282 nM | anti-CI-M6PR VHH9 (VHH, His6-tagged; made in Pichia pastoris) VHH: QVQLQESGGGLVQAGGSLRLSCAASGTILSIKTMGWYRQAPGKEREWVATITSSSIPMYADSVKGRFTISRDDAKNTVYLQMNSLKPEDTGVYYCNAPWTDYWGQGTQVTVSS |
| 0.11 nM | 6.45 nM | 0.00368 s⁻¹ | 570000 M⁻¹ s⁻¹ | 0.00065 s⁻¹ | – | 0.0012 s⁻¹ | 1.3e+08 M⁻¹ s⁻¹ | 1.69 nM | 0.000787 s⁻¹ | 465000 M⁻¹ s⁻¹ | 0.084 s⁻¹ | 2.4e+06 M⁻¹ s⁻¹ | 1.69 nM | 0.000787 s⁻¹ | 465000 M⁻¹ s⁻¹ | – | 0.00065 s⁻¹ | – | – | anti-CI-M6PR VHH8 (VHH, His6-tagged (Pichia pastoris)) VHH: QVQLQESGGGLVQAGGSLRLSCEASGRTFNTYNWGWFRQAPGKEREFVAAIRWSSSKTSYADSVKGRFTISRDNAKNTIYLQMNSLKPEDTAVYYCAASIVDFTTNPSHFGSWGQGTQVTVSS |
| 1.78 nM | 6.05 nM | ~0.00756 s⁻¹ | 1.25e+06 M⁻¹ s⁻¹ | 0.0099 s⁻¹ | 1e+06 M⁻¹ s⁻¹ | 0.021 s⁻¹ | 560000 M⁻¹ s⁻¹ | 7.44 nM | ~0.00606 s⁻¹ | 814000 M⁻¹ s⁻¹ | 0.072 s⁻¹ | – | 7.44 nM | ~0.00606 s⁻¹ | 814000 M⁻¹ s⁻¹ | ~11.2 nM | 0.0099 s⁻¹ | 1e+06 M⁻¹ s⁻¹ | ~11.2 nM | anti-CI-M6PR VHH1 (VHH, His6-tagged; made in Pichia pastoris, later also in E. coli WK6) VHH: QVQLQESGGGLVQPGGSLRLSCVASGFTFDRYWMNWLRQIPGKEIEWVSTINTGGTGTYYDDSVKGRFSISRDDAKNTLYLTMNSLKTEDTAVYYCARGATYYRGNSAIRGQGTQVTVSS |
| 0.0379 nM | 0.269 nM | 0.000604 s⁻¹ | 2.24e+06 M⁻¹ s⁻¹ | 0.000345 s⁻¹ | 48600 M⁻¹ s⁻¹ | 0.000499 s⁻¹ | 40600 M⁻¹ s⁻¹ | ≤ 0.000117 nM | ≤ 1e-07 s⁻¹ | 853000 M⁻¹ s⁻¹ | 0.000369 s⁻¹ | 55600 M⁻¹ s⁻¹ | ≤ 0.000117 nM | ≤ 1e-07 s⁻¹ | 853000 M⁻¹ s⁻¹ | 7.1 nM | 0.000345 s⁻¹ | 48600 M⁻¹ s⁻¹ | 7.09 nM | anti-CI-M6PR VHH3 (VHH, His6-tagged; made in Pichia pastoris) VHH: QVQLQESGGGLVQPGGSLRLSCAAFGLNFKNFDMIWFRQAPGEERDIVAAISSSSSTIWYEDSVKGRFTISRDNAKNTVYLQMNSLKPEDTAVYYCAAALTSWRRPDYWGQGTQVTVSS |
| – | 2.2 nM | 0.00126 s⁻¹ | 572000 M⁻¹ s⁻¹ | 0.00133 s⁻¹ | 571000 M⁻¹ s⁻¹ | 0.00126 s⁻¹ | 572000 M⁻¹ s⁻¹ | 2.33 nM | 0.00133 s⁻¹ | 571000 M⁻¹ s⁻¹ | 0.00729 s⁻¹ | 729000 M⁻¹ s⁻¹ | – | – | – | – | 0.00133 s⁻¹ | – | 2.34 nM | anti-CI-M6PR VHH4 (VHH, His6-tagged; made in Pichia pastoris) VHH: QVQLQESGGGLVQAGGSLRLSCAASGRTFSNYVMGWFRQAPGKEREFVGSISQGGKMTYYPDSVKGRFTISRDNAKNTMYLQMDGLKPEDTAVYYCAVSRGYPMVRVSEVDYWGQGTQVTVSS |
